# In article PMC9922763:
# Biological target: synthetic IAPP, used as monomer and as sonicated preformed fibrils (seeds) (UniProt P10997)
# Chain of synthetic IAPP, used as monomer and as sonicated preformed fibrils (seeds) (from UniProt P10997 34-70) (peptide) (P10997 34-70): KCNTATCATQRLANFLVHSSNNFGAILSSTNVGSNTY
substance,measurement,value
"synthetic IAPP, used as monomer and as sonicated preformed fibrils (seeds) (from UniProt P10997 34-70) (peptide)","lag phase of ThT fibril formation of 2.5 µM monomeric IAPP after adding IAPP seeds corresponding to 100 nM monomeric peptide (240 min without seeds); PBS pH 7.4, 37°C",20 min
